Literature values as cited in patent US20210244796A1, “COMPOSITIONS IN THE FORM OF AN INJECTABLE AQUEOUS SOLUTION COMPRISING AMYLIN AN AMYLIN RECEPTOR AGONIST OR AN AMYLIN ANALOG, AT LEAST ONE IONIC SPECIES AND AN AMPHOIPHILIC COMPOUNDS CONTAINING HYDRIPHOBIC RADICALS” (ADOCIA, priority 2018, published 2021).
Read-outs that look alike come from different tables or passages of the source.

Row | pH of the solution above which the peptide is described as shining (pramlintide formulated at acidic pH) | Molecule | Time for which amylin is stable (acidic pH) | Time for which amylin is stable (neutral pH)
1 | greater than 5.5 | CC[C@H](C)[C@H](NC(=O)[C@@H]1CCCN1C(=O)CNC(=O)[C@H](Cc1ccccc1)NC(=O)[C@H](CC(N)=O)NC(=O)[C@H](CC(N)=O)NC(=O)[C@H](CO)NC(=O)[C@H](CO)NC(=O)[C@H](Cc1c[nH]cn1)NC(=O)[C@@H](NC(=O)[C@H](CC(C)C)NC(=O)[C@H](Cc1ccccc1)NC(=O)[C@H](CC(N)=O)NC(=O)[C@H](C)NC(=O)[C@H](CC(C)C)NC(=O)[C@H](CCCNC(=N)N)NC(=O)[C@H](CCC(N)=O)NC(=O)[C@@H](NC(=O)[C@H](C)NC(=O)[C@@H]1CSSC[C@H](NC(=O)[C@@H](N)CCCCN)C(=O)N[C@@H](CC(N)=O)C(=O)N[C@@H]([C@@H](C)O)C(=O)N[C@@H](C)C(=O)N[C@@H]([C@@H](C)O)C(=O)N1)[C@@H](C)O)C(C)C)C(=O)N[C@@H](CC(C)C)C(=O)N1CCC[C@H]1C(=O)N1CCC[C@H]1C(=O)N[C@H](C(=O)N[C@@H](CC(N)=O)C(=O)N[C@H](C(=O)NCC(=O)N[C@@H](CO)C(=O)N[C@@H](CC(N)=O)C(=O)N[C@H](C(=O)N[C@@H](Cc1ccc(O)cc1)C(N)=O)[C@@H](C)O)C(C)C)[C@@H](C)O [pramlintide, reference compound] |  | 
2 |  | Amylin: 37 amino acid peptide co-stored and co-secreted with insulin (KCNTATCATQRLANFLVHSSNNFGAILSSTNVGSNTY; Islet amyloid polypeptide; UniProt P10997 34-70, looked up) | about fifteen | less than one
